These results are taken from patent US20100075326A1 (CORNELL UNIVERSITY, published 2010).

Assay [1] concerns the target T1, Botulinum neurotoxin serotype A light chain protease (BoNT/A-LC), YS2H bait fused to Aga2 with C-terminal … (yeast, UniProt P0DPI0 1-448).
T1 construct: range 1-448
The assay is described as follows: predicted from YS2H (flow cytometry of Myc and FLAG tags, Langmuir equation).

The target of assay [2] is T2, Botulinum neurotoxin serotype A light chain protease (BoNT/A-LC), soluble, hexahistidine tags at both termini (UniProt P0DPI0 1-448).
T2 construct: range 1-448
The assay is described as follows: SPR (Biacore), A-LC injected over G6-coated chip. A general note: SPR reads the build-up and loss of mass on a sensor chip optically.

Assay [3] deals with T2, Botulinum neurotoxin serotype A light …. The assay is described as follows: SPR (Biacore), G6 compared with B8 on A-LC.
The target is the same in assay [4]. The experiment in a line: SPR (Biacore), A-LC injected over G6-coated chip. This is another data set of the same source.
The target is the same in assay [5]. The experiment in a line: SPR (Biacore), A-LC injected over B8-coated chip.
Assay [6] shares this target. The experiment in a line: SPR (Biacore), A-LC injected over B8-coated chip. This is another data set of the same source.

B1: VHH-G6, secreted YS2H prey with C-terminal Myc tag (VHH)
VHH: HVQLQQSGGGLVQPGGSLRLSCAASGFTLDYYAIGWFRQAPGKEREGVSCISSSGGSTYYADSVKGRFTISRDNAKNTVYLQMNSLKPEDTAVYYCAVAQSCLRGGVRGGYWGQGTQVTVSS
For the molecule B1, the Kd (usually the concentration at which binding is half-saturated) in assay [1] was 143 nM.

B2: VHH-G6, soluble, from E. coli (pET20b) (VHH)
VHH: HVQLQQSGGGLVQPGGSLRLSCAASGFTLDYYAIGWFRQAPGKEREGVSCISSSGGSTYYADSVKGRFTISRDNAKNTVYLQMNSLKPEDTAVYYCAVAQSCLRGGVRGGYWGQGTQVTVSS
For the molecule B2, in assay [2], the koff – broadly, a measure of how fast the partners let go of each other – came to 0.0182 s⁻¹ and the kon (as a rule, a measure of how fast the partners come together) stood at 76100 M⁻¹ s⁻¹. In addition, in assay [3], the “fold difference in affinity against B8” value is 100 fold, the “fold difference in association rate against B8” value is 3 fold and the “fold difference in dissociation rate against B8” value turned out to be 34 fold. Besides, the affinity in assay [4], expressed as Kd, was 230 nM.

B3: VHH-B8, secreted YS2H prey with C-terminal Myc tag (VHH)
VHH: HVQLQQSGGGLVQPGGSLRLSCAASGSIFSIYAMGWYRQAPGKQRELVAAISSYGSTNYADSVKGRFTISRDNAKNTVYLQMNSLKPEDTAVYYCNADIATMTAVGGFDYWGQGTQVTVSS
With B3, the Kd in assay [1] is 38.2 nM.

B4: VHH-B8, soluble, from E. coli (pET20b) (VHH)
VHH: HVQLQQSGGGLVQPGGSLRLSCAASGSIFSIYAMGWYRQAPGKQRELVAAISSYGSTNYADSVKGRFTISRDNAKNTVYLQMNSLKPEDTAVYYCNADIATMTAVGGFDYWGQGTQVTVSS
In assay [5], B4 had an off-rate constant (koff) of 0.000518 s⁻¹ and a kon of 226000 M⁻¹ s⁻¹. In assay [6], this molecule yielded a Kd of 2.3 nM.
